Results from PMC10398670 (EMBO Reports, 2023).

Tests used:
GST::MIRO‐1 = target: T1, GST::MIRO‐1 (C. elegans, UniProt Q94263 1-601); assay: pull-down
T1 sequence (looked up): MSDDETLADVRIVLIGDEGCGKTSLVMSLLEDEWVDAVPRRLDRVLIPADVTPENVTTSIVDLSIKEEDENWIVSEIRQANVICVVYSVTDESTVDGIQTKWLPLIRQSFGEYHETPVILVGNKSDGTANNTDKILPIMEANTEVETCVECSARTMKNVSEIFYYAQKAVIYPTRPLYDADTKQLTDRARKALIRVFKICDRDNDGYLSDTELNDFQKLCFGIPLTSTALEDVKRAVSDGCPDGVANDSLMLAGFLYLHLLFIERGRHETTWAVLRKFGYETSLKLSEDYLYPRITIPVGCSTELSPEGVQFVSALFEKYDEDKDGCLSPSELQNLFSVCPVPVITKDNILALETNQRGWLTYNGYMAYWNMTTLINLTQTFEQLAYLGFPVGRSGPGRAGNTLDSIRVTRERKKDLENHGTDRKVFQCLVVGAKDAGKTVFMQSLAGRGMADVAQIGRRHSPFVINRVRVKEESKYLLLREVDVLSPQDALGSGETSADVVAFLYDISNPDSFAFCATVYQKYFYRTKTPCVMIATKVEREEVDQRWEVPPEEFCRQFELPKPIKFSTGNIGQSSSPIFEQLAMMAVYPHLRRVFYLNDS

MIRO‐1::His = target: T2, MIRO‐1::His (C. elegans, UniProt Q94263 1-601); assay: cross-linking
T2 sequence (looked up): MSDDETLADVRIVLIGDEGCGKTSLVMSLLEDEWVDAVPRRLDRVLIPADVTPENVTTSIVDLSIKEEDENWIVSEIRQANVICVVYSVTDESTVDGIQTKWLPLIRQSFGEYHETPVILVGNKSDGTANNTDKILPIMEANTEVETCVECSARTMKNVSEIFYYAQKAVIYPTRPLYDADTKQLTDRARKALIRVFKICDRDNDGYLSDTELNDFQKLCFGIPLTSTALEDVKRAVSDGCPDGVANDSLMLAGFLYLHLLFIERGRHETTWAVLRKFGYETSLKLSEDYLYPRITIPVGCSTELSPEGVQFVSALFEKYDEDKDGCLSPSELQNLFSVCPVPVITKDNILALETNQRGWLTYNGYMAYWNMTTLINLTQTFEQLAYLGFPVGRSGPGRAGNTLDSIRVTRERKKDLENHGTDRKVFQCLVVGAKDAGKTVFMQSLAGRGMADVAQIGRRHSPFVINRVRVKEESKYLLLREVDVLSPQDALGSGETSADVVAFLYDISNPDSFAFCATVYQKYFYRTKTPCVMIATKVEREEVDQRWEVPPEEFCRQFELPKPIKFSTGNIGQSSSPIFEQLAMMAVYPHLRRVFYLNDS

B1: VDAC‐1::His (natural protein, C. elegans, UniProt Q21752 1-283, looked up)
chain: MAPPTFADLGKSAKDLFNKGYNFGFLKIDSTTRAGDNKEVEFKSAASHNIGSGKLGGNLDVKYKIPQYGITLTEKWNTENQLGTVIEVNEQFGRGLKVTLDSLYAPHAGKRSGKVKLDWALPTARVTADVGVTSAPVINAAGVFSRDGWLIGAAATFDSSSNKLAATSLAFGHSTPQYTLHSFVINSTDFGASLYHKVASNVEVGTQLGWKVGGNGADYALATKYAPSRDLTVRAKVNSSSQVAVAATHSLSPALKLTLSTQFNLAANDAHKFGLGLEFDPSN
B1: binds (GST::MIRO‐1); binds (MIRO‐1::His).
